For 1 substance, stoichiometry N results are on record in paper PMC10585004.

The experiment addresses Bovine Thyroglobulin (Sigma-T1001) (bovine) (UniProt P01267). Kind of experiment: SAXS; XFEL small-angle scattering, liquid jet (GDVN) with reservoir delivery, thyroglobulin 0.7 mg/ml in PBS; experimental form factor compared with the profile computed (CRYSOL) from the cryo-EM dimer model.

Usually stoichiometry N stands for a count of units in the complex or per binding partner. “Bovine Thyroglobulin (Sigma-T1001), P01267 20-2769” came in with a stoichiometry N of 2.
